Source: the supplement of paper PMC9876800

System: peptide library, one residue held at a place counted from the S/T acceptor
Assay: relative phosphorylation of the sub-library (ratio to the mean residue at this position); human; higher = residue favoured
Summary of the method: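 Each biotinylated degenerate peptide sub-library fixed one residue at one position around a central Ser/Thr and was incubated with a purified recombinant kinase, a human or orthologue construct, in 384-well plates. The 90 min reactions, under kinase-specific conditions, contained 50 μM peptide and 50 μM ATP spiked with γ-32P-ATP. Phosphorylation was read by phosphorimaging spots on streptavidin membranes and quantifying them by densitometry. Relative sub-library phosphorylation expresses each value as a ratio to the mean residue at that position.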

PKN3, construct: Full length (from UniProt Q6P5Z2)
relative phosphorylation
Conditions | at +1 | at +2 | at +3 | at +4 | at -1 | at -2 | at -3 | at -4 | at -5
A fixed | 0.497 | 0.811 | 0.681 | 0.955 | 0.874 | 1.12 | 0.679 | 1.07 | 0.92
D fixed | 0.614 | 0.652 | 0.765 | 0.967 | 1.01 | 0.684 | 0.44 | 0.823 | 0.801
E fixed | 0.554 | 0.784 | 0.848 | 0.887 | 1.06 | 0.791 | 0.504 | 1.12 | 0.719
F fixed | 4.24 | 0.552 | 0.883 | 0.671 | 0.682 | 0.703 | 0.562 | 0.717 | 0.839
G fixed | 0.625 | 0.52 | 0.918 | 1.13 | 1.12 | 1.21 | 0.898 | 1.08 | 0.973
H fixed | 0.667 | 1.55 | 1.32 | 1.3 | 1.21 | 1.12 | 1.06 | 1.09 | 1.12
I fixed | 1.14 | 0.724 | 0.782 | 0.714 | 0.444 | 0.511 | 0.427 | 0.776 | 1.18
K fixed | 0.802 | 1.67 | 1.2 | 1.64 | 1.55 | 1.75 | 1.54 | 1.55 | 1.1
L fixed | 0.951 | 0.864 | 0.894 | 0.738 | 0.77 | 0.569 | 0.413 | 0.775 | 1.34
M fixed | 1.83 | 0.728 | 0.833 | 0.858 | 0.854 | 0.771 | 1.28 | 1.07 | 0.97
N fixed | 0.78 | 1.17 | 1 | 1.19 | 1.48 | 1.33 | 0.713 | 1.25 | 1.06
P fixed | 0.426 | 0.432 | 0.736 | 1.36 | 1.56 | 0.721 | 0.899 | 0.924 | 0.955
Q fixed | 0.88 | 0.806 | 1.11 | 1.15 | 1.36 | 1.34 | 0.786 | 0.922 | 0.789
R fixed | 0.74 | 3.4 | 1.4 | 1.02 | 1.12 | 2.24 | 5.22 | 1.4 | 1.5
V fixed | 0.892 | 0.753 | 0.807 | 0.716 | 0.558 | 0.711 | 0.496 | 0.801 | 1.07
W fixed | 0.606 | 0.683 | 1.32 | 0.883 | 0.524 | 0.782 | 0.517 | 0.85 | 0.828
Y fixed | 0.751 | 0.898 | 1.49 | 0.823 | 0.812 | 0.646 | 0.561 | 0.786 | 0.833
pThr fixed | 0.747 | 0.671 | 0.69 | 0.944 | 0.866 | 0.755 | 0.532 | 0.645 | 0.581
pTyr fixed | 0.695 | 0.952 | 0.825 | 0.807 | 0.585 | 0.662 | 0.902 | 0.676 | 0.781

PRKACB, construct: Full length (from UniProt P22694)
relative phosphorylation
Conditions | at +1 | at +2 | at +3 | at +4 | at -1 | at -2 | at -3 | at -4 | at -5
A fixed | 0.818 | 1.26 | 0.948 | 0.9 | 0.875 | 0.426 | 0.62 | 1.15 | 1.18
D fixed | 0.607 | 1.56 | 1.15 | 1.36 | 0.667 | 0.196 | 0.231 | 0.657 | 0.772
E fixed | 0.649 | 0.788 | 1.04 | 1.3 | 0.49 | 0.167 | 0.252 | 0.816 | 0.736
F fixed | 0.811 | 0.684 | 0.72 | 0.689 | 0.455 | 0.209 | 0.213 | 0.486 | 0.594
G fixed | 0.87 | 1.29 | 1.29 | 1.15 | 1.47 | 0.436 | 0.625 | 1.51 | 1.42
H fixed | 1.22 | 1.7 | 1.45 | 1.05 | 1.22 | 0.786 | 1.34 | 1.27 | 1.22
I fixed | 1.21 | 0.573 | 0.488 | 0.705 | 0.265 | 0.2 | 0.127 | 0.471 | 0.394
K fixed | 1.06 | 0.797 | 0.927 | 0.89 | 1.92 | 3.26 | 2.66 | 1.93 | 2.25
L fixed | 1.06 | 0.634 | 0.785 | 0.713 | 0.648 | 0.219 | 0.183 | 0.532 | 0.557
M fixed | 1.46 | 0.701 | 0.79 | 0.747 | 0.856 | 0.25 | 0.204 | 0.782 | 0.601
N fixed | 1.2 | 1.23 | 1.24 | 1.25 | 1.52 | 0.566 | 0.495 | 1.04 | 0.983
P fixed | 0.382 | 1.29 | 1.58 | 1.74 | 1.44 | 0.271 | 0.824 | 1.19 | 1.21
Q fixed | 1.3 | 1.23 | 1.22 | 1.34 | 1.17 | 0.555 | 0.715 | 1.04 | 0.97
R fixed | 1.35 | 0.937 | 1.04 | 0.93 | 2.14 | 8.75 | 7.65 | 2.38 | 2.14
V fixed | 0.892 | 0.59 | 0.517 | 0.877 | 0.446 | 0.191 | 0.184 | 0.482 | 0.605
W fixed | 1.05 | 1.03 | 0.964 | 0.66 | 0.577 | 0.236 | 0.329 | 0.6 | 0.746
Y fixed | 1.06 | 0.709 | 0.855 | 0.698 | 0.839 | 0.276 | 0.354 | 0.67 | 0.624
pThr fixed | 0.988 | 0.988 | 0.984 | 1.67 | 0.443 | 0.319 | 0.474 | 0.789 | 0.727
pTyr fixed | 1.06 | 1 | 1.24 | 1.37 | 0.979 | 0.276 | 0.451 | 0.775 | 0.82
